Test system: P19 cells
Test: Lentiviral transduction silencing experiment, UCOE linked to CMV, EF1α, RSV or PGK promoter driving GFP
Format: cell-based, mouse
Conditions: for anti-silencing performance across all four tested promoters: CMV, EF1α, RSV, PGK promoters; for GFP positive cells / expression compared to the negative control: final timepoint
Excerpt: The graphs show the raw data of measured percent GFP positive cells (% GFP+) for each construct over time. Transduced populations were sorted into triplicate wells using FACS at day 0 (5 days after lentiviral transductions) to begin the study at 100% GFP positive cells. Expression is lost quickly within the first 10 days, and then stabilizes around day 15. Data is reported as mean±SD from biological triplicates. Two positive UCOE controls (A2UCOE, 3′UCOE) and a negative control (no insulator region) were used.
Percent GFP positive cells at the final timepoint (day 26 for CMV and RSV, day 27 for PGK and EF1α) of the lentivirus silencing experiment across the four tested promoters is plotted. P19 cells were FACS-sorted five days after transduction (day 0) and then assayed over a 26 or 27-day time period thereafter. Data is reported as mean±SD from three biological replicates.
Two plasmids (pCS3800: encoding HIV-1 Gag; pCS380: encoding VSVg envelope protein) were used with varying versions of the donor plasmid pCS3799. HEK293T cells were plated at 5×10^6 cells in a 10 cm dish. Twenty-four hours after plating, the three plasmids (10 μg donor, 8 μg pCS3800, 10 μg pCS3801) were co-transfected together using a calcium phosphate protocol (Zufferey, R. T. and Trono, D. (2001) Current Protocols in Human Genetics, 26 (1), 12.10.1-12.10.12; DOI: 10.1002/0471142905.hg1210s26 (55)). The total DNA was brought to 500 μL in water, to which 500 μL of 2×HEPES-buffered saline, pH7.0 (Alfa Aesar) was added and mixed. One-tenth of the total volume (100 μL) of 2.5 M calcium chloride (Sigma-Aldrich) was then added to the mixture, followed by a 20-minute incubation. The mixture was then added to the plate in a dropwise manner. Media was replaced six hours later, and the supernatant was collected at 48 hr after the transfection, filtered through 0.4 μm filter, and frozen at −80° C. in 1 mL aliquots. Lentiviral aliquots were thawed in a 37° C. bead bath before transductions.
P19 cells were plated at 20-30,000 cells/well in 12-well plates one day before transduction. Twenty-four hours after plating, cells were transduced at varying dilutions of the lentiviral stock (ranging from 1:2 to 1:100) in DMEM+10% FBS with 8 μg/mL polybrene (Santa Cruz Biotechnologies). Media was refreshed on P19 cells 24 hours after transduction, and cells were passaged and assayed through a MACSQuant® VYB flow cytometer (Miltenyi Biotec) 48 h after transduction. MOI was determined by reporter expression at this timepoint using the following formula: MOI=ln (1/1-p) where p is the % of cells that are GFP positive at 48 hours post-transduction (Chen, S. et al. (2015) Cell, 160, 1246-1260 (56)).
Cells were FACS-sorted on the BD Influx™ cell sorter at the Stanford FACS Facility using the 488-nm laser and 525/40 filter to assay GFP expression. After gating for singlets and viability, GFP+ gate was drawn to be <0.1% GFP positive in non-transduced P19 cells. GFP+ gates were re-drawn for each promoter set to avoid the ˜10% highest and lowest expressing cells within the GFP+ gate, but the same gate was used for every experimental condition under the same promoter. Triplicate wells of each population (12-15,000 cells/well in a 24-well plate) were collected.
Fluorescence data throughout silencing experiments was obtained using a MACSQuant® VYB flow cytometer (Miltenyi Biotec). EGFP was measured through the 488-nm laser and 525/50 nm band pass filter. Flow cytometry data was analyzed using the FlowJo™ single cell flow cytometry analysis software (Tree Star). After being gated for singlets and viability, GFP+ gates in FlowJo were drawn such that a non-transfected or non-transduced P19 cell population was at 1% GFP+. Median values reported are of cells within the GFP+ gate, both % GFP positive and median are reported with the standard deviation of biological replicates. […]

[1] = Ef1α promoter, day 27 after FACS sort to 100% GFP+

B1: Candidate 6-2: Truncated SRF-UCOE variant having a 478 base pair 5′ end deletion, SEQ ID NO:3 (nucleic acid)
DNA: AGCGGCTTCCGCCGGGCTGCTCCGCGGGCGCGTCGGCCATGAGCGAGTTGCCGGGCGACGTGCGGGCGTTTCTGCGGGAGCACCCGAGCCTGCGGCTCCAGACGGACGCCCGCAAGGTTCGCAGCGCGGGAGGGGAACGGAGTGGCGGAGAAGGGCGCAGTTGGGATGAGGGGCTGAGGGGAGGGCAGGGGAGAGGAGAGGGCAGGGGAGAGGGGAGAGGGGAGAGCAGGAGAGAGGGGAAGGCAGGGGAGAGGGCGCGGCGGGATCAGGGGAGGAGAGGGAAGGGGGCGCGGCAGGAGGGGGCACCAGGGAGCGGAGCCCTGGCCCTCCTGACGTCCTGCCCGCCCACGCGTCCGCAGGTGAGGTGCATCCTGACAGGTCACGAGCTGCCCTGCCGCCTGCCGGAGCTCCAGGTCTACACCCGCGGCAAAAAGTACCAGCGGCTGGTCCGCGCCTCCCCGGCCTTCGACTATGCAGAGTTCGAGCCGCACATCGTGCCCAGCACCAAGAACCCGTAGGTGGTC
Question: Which “efficacy in resisting silencing” value (CMV promoter) does the source give for B1 here?
Answer: best-performing population

Question: What about the “% GFP+ cells at final timepoint” value (CMV promoter, day 26) of the same molecule?
Answer: 55%

Question: And the “% GFP+ cells, representative example (one biological replicate)” value (from here on “% GFP+ cells … (one biological replicate)”) (CMV promoter, day 26)?
Answer: 59.2%

Question: And the “improvement over A2UCOE” value (CMV promoter, day 26)?
Answer: 1.4 fold

Question: What about the “improvement over the negative control” value (CMV promoter, day 26) of the same molecule?
Answer: 4.4 fold

Question: And the “anti-silencing performance across all four tested promoters” value?
Answer: failed to outperform the negative control in 3 of the 4 promoters tested

Question: And the “efficacy in resisting silencing” value (Ef1α promoter)?
Answer: ineffective

Question: And the “% GFP+ cells at final timepoint” value [1]?
Answer: 11%

Question: And the “efficacy in resisting silencing” value (PGK promoter)?
Answer: substantially less effective than the other Candidate 6 sequences

Question: What about the “% GFP+ cells at final timepoint” value (PGK promoter, day 27) of the same molecule?
Answer: 17%

Question: And the “efficacy in resisting silencing” value (RSV promoter)?
Answer: ineffective

B2: Candidate 6-3: Truncated SRF-UCOE variant having a 241 base pair 3′ end deletion, SEQ ID NO:4 (nucleic acid)
DNA: GCACACGACCACAATTCCACTGAAAGCATTTTAATACGGAACTTGTCACTCCCAGGGAGCCTCCGCTCAGCCGGCAGTTGGTTCATTTCAATCCCCACGACAACCCTTCAAAGTGCAGGGCAGACAGCAGGTGGCTCTGCCCAGGCGCCTGGATCACAGCCCGGCCTGCAGCCCTCACCTGGGCGCGGGGAGACCCTGAGGACGCTCCTCCAGGCGGCGCTGGCCGGGGCCTGCGGACACGGACGGGCGGGCTGAGCTCCGGGACCCCTCCCCGCGCCCCGCACCCCGCACCCCGCACCCCGCACCCCGCACCCGGCGCTCACCCGTCCCAGCCCCGCCGCCCGCAGCCCCAGCTGCAACGCAGCCACCGCCGCCATCGCACCCGGCCCCGCGGGCGCTTCCGGGACGCAGGAGGCATCTGCATCCGGGGCGCCGCTGAGTCCCGCCCAGAGCCCCGCCCCCGGCTCCAGGTTCTGCGAGCGGCTTCCGCCGGGCTGCTCCGCGGGCGCGTCGGCCATGAGCGAGTTGCCGGGCGACGTGCGGGCGTTTCTGCGGGAGCACCCGAGCCTGCGGCTCCAGACGGACGCCCGCAAGGTTCGCAGCGCGGGAGGGGAACGGAGTGGCGGAGAAGGGCGCAGTTGGGATGAGGGGCTGAGGGGAGGGCAGGGGAGAGGAGAGGGCAGGGGAGAGGGGAGAGGGGAGAGCAGGAGAGAGGGGAAGGCAGGGGAGAGGGCGCGGCGGGATCAGGGGAGGAGAGGGAA
Question: How did the “% GFP+ cells at final timepoint” value (CMV promoter, day 26) turn out when B2 was run?
Answer: 39%

Question: What about the “improvement over the negative control” value (CMV promoter, day 26) of the same molecule?
Answer: 3 fold

Question: What about the “anti-silencing performance across all four tested promoters” value of the same molecule?
Answer: most consistent activity

Question: What about the “% GFP+ cells … (one biological replicate)” value (EF1a promoter, day 27) of the same molecule?
Answer: 69%

Question: What about the “% GFP+ cells at final timepoint” value [1] of the same molecule?
Answer: greater than 65%

Question: What about the “GFP positive cells / expression compared to the negative control” value (Ef1α promoter) of the same molecule?
Answer: more than four times

Question: And the “% GFP+ cells at final timepoint” value (PGK promoter, day 27)?
Answer: 49%

Question: What about the “% GFP+ cells … (one biological replicate)” value (PGK promoter, day 27) of the same molecule?
Answer: 47.8%

Question: What about the “% GFP+ cells at final timepoint” value (RSV promoter, day 26) of the same molecule?
Answer: 66%

B3: Candidate 6-1: Truncated SRF-UCOE variant having a 106 base pair 5′ end deletion, SEQ ID NO:2 (nucleic acid)
DNA: TTCAAAGTGCAGGGCAGACAGCAGGTGGCTCTGCCCAGGCGCCTGGATCACAGCCCGGCCTGCAGCCCTCACCTGGGCGCGGGGAGACCCTGAGGACGCTCCTCCAGGCGGCGCTGGCCGGGGCCTGCGGACACGGACGGGCGGGCTGAGCTCCGGGACCCCTCCCCGCGCCCCGCACCCCGCACCCCGCACCCCGCACCCCGCACCCGGCGCTCACCCGTCCCAGCCCCGCCGCCCGCAGCCCCAGCTGCAACGCAGCCACCGCCGCCATCGCACCCGGCCCCGCGGGCGCTTCCGGGACGCAGGAGGCATCTGCATCCGGGGCGCCGCTGAGTCCCGCCCAGAGCCCCGCCCCCGGCTCCAGGTTCTGCGAGCGGCTTCCGCCGGGCTGCTCCGCGGGCGCGTCGGCCATGAGCGAGTTGCCGGGCGACGTGCGGGCGTTTCTGCGGGAGCACCCGAGCCTGCGGCTCCAGACGGACGCCCGCAAGGTTCGCAGCGCGGGAGGGGAACGGAGTGGCGGAGAAGGGCGCAGTTGGGATGAGGGGCTGAGGGGAGGGCAGGGGAGAGGAGAGGGCAGGGGAGAGGGGAGAGGGGAGAGCAGGAGAGAGGGGAAGGCAGGGGAGAGGGCGCGGCGGGATCAGGGGAGGAGAGGGAAGGGGGCGCGGCAGGAGGGGGCACCAGGGAGCGGAGCCCTGGCCCTCCTGACGTCCTGCCCGCCCACGCGTCCGCAGGTGAGGTGCATCCTGACAGGTCACGAGCTGCCCTGCCGCCTGCCGGAGCTCCAGGTCTACACCCGCGGCAAAAAGTACCAGCGGCTGGTCCGCGCCTCCCCGGCCTTCGACTATGCAGAGTTCGAGCCGCACATCGTGCCCAGCACCAAGAACCCGTAGGTGGTC
Question: With B3 as the molecule, how does the “% GFP+ cells at final timepoint” value (CMV promoter, day 26) read?
Answer: 39%

Question: What about the “improvement over the negative control” value (CMV promoter, day 26) of the same molecule?
Answer: 3 fold

Question: And the “GFP positive cells / expression compared to the negative control” value (Ef1α promoter)?
Answer: 3.6 times

Question: And the “% GFP+ cells at final timepoint” value (PGK promoter, day 27)?
Answer: 31%

Question: And the “expressing cells / improvement over the negative control” value (PGK promoter, day 27)?
Answer: 5 fold

Question: What about the “% GFP+ cells at final timepoint” value (RSV promoter, day 26) of the same molecule?
Answer: 68%

Source: US12611470B2, “Chromatin-opening element for stable long term gene expression” (CZ Biohub SF, LLC, priority 2019, dated 2026)
